Reference: US7655420B2, “Methods to increase or decrease bone density” (Celltech R & D, Inc., priority 2002, dated 2010)
“Also recorded” adds a separate entry of the source.

Columns and labels:
[1] = tested on: alkaline phosphatase activity in primary human osteoblasts; experiment: histochemical staining for alkaline phosphatase in primary human osteoblasts; assay type: cell-based; details: primary human osteoblasts in Inducing media, Sclerostin 20 μg/ml, 7 days
Procedure: Primary human osteoblasts were grown in regular growth media or in Inducing media (to promote differentiation) and then treated with Sclerostin (20 μg/ml) or Control (protein purified from Sf9 conditioned media) for 7 days prior to histochemical staining for alkaline phosphatase activity. Osteoblasts grown in regular growth media expressed low, basal levels of ALP (“No Treatment,” far right panel).

[2] = tested on: alkaline phosphatase (ALP) activity in hMSC cells; experiment: alkaline phosphatase activity in differentiating hMSC cells; assay type: cell-based, human; details: for basal alkaline phosphatase activity, increasing concentrations (dose-dependent) / ALP activity: hMSC cells, Osteoblast-Inducing media; for ALP activity: 7 days
Procedure: hMSC cells were plated in 96-well tissue culture dishes at a density of 10,000 cells/cm^2 in Osteoblast-Inducing medium. Partially purified preparations of baculovirus-expressed sclerostin protein were prepared in sterile PBS using NAP-5 columns prior to use. Human sclerostin protein (0 to 30 μg/ml) or an equal volume of Sf9 conditioned media (Control) was added to cultures of hMSC cells at various times after plating (1 day, 8 days, 15 days, or 21 days). The effects of sclerostin on osteoblastic differentiation were assessed by measuring alkaline phosphatase activity (ALP, determined in cell layers using DEAA buffer (Pierce) containing 0.5% NP-40 and 10 mM p-nitrophenylphosphate), synthesis of collagen type I (Prolagen C ELISA), and calcium deposition for mineralization (colorimetric assay of acid lysates of cell layers, Sigma).

apoptosis genes = experiment: Apoptosis Gene Array of hMSC treated with sclerostin; assay type: cell-based, human
Procedure: In another study, hMSC were treated with vehicle or sclerostin for 6 hrs or 48 hrs. Cells were harvested, RNA prepared and used for the analysis of a commercially available Apoptosis Gene Array (SuperArray, Bethesda, Md.). To further investigate the effects of sclerostin on the apoptosis of hMSC, RNA was harvested from vehicle and sclerostin-treated cells and used the RNA to probe a cDNA expression array containing apoptosis genes. The results for vehicle and sclerostin-treated samples were compared and data (corrected for background) were expressed as a ratio of sclerostin to vehicle.

[3] = hMSC, 6 hrs, Anti-apoptotic gene
[4] = hMSC, 48 hrs, Anti-apoptotic gene
[5] = hMSC, 48 hrs, Proapoptotic gene

B1: sclerostin: partially purified baculovirus-expressed human sclerostin protein, SOST gene product (SEQ ID NO:3); also made with a FLAG tag (protein, listed as Homo sapiens)
chain: MQLPLALCLVCLLVHTAFRVVEGQGWQAFKNDATEIIPELGEYPEPPPELENNKTMNRAENGGRPPHHPFETKDVSEYSCRELHFTRYVTDGPCRSAKPVTELVCSGQCGPARLLPNAIGRGKWWRPSGPDFRCIPDRYRAQRVQLLCPGGEAPRARKVRLVASCKCKRLTRFHNQSELKDFGTEAARPQKGRKPRPRARSAKANQAELENAY
modifications: optional FLAG tag
amount of ALP expressed (histochemical stain) [1]: marked decrease | decrease of alkaline phosphatase activity ([2]; hMSC cells treated with about 10 to 15 μg/ml of the protein, p<0.001 to control): about 50% | basal alkaline phosphatase activity, increasing concentrations (dose-dependent) [2]: significantly reduced; also recorded: decreased | ALP activity ([2]; protein at 1 μg/ml): decreased | ALP activity ([2]; protein at 5 μg/ml): decreased | basal alkaline phosphatase activity, increasing concentrations (dose-dependent) ([2]; listed as Sclerostin): decreased | basal alkaline phosphatase activity, increasing concentrations (dose-dependent) ([2]; listed as human sclerostin): decreases | increase in the expression of apoptosis-associated genes and genes involved in cell survival (apoptosis genes; hMSC treated for 6 hrs with sclerostin): 2 to 4 fold | Ratio of sclerostin to vehicle, Bruce (apoptosis genes; [3]): 1.45 ± 0.75 | Ratio of sclerostin to vehicle, Survivin, IAP2 (apoptosis genes; [3]): 1.32 ± 0.48 | Ratio of sclerostin to vehicle, XIAP (apoptosis genes; [3]): 2.01 ± 0.64 | Ratio of sclerostin to vehicle, BAX (apoptosis genes; hMSC, 6 hrs, Proapoptotic gene): 1.53 ± 0.2 | Ratio of sclerostin to vehicle, Bcl10 (apoptosis genes; hMSC, 6 hrs, Proapoptotic gene): 4.09 ± 2.13 | Ratio of sclerostin to vehicle, Caspase 3 (apoptosis genes; hMSC, 6 hrs, Proapoptotic gene): 2.46 ± 0.69 | Ratio of sclerostin to vehicle, Caspase 4 (apoptosis genes; hMSC, 6 hrs, Proapoptotic gene): 1.83 ± 1.12 | Ratio of sclerostin to vehicle, Caspase 7 (apoptosis genes; hMSC, 6 hrs, Proapoptotic gene): 1.76 ± 0.18 | Ratio of sclerostin to vehicle, Hrk (apoptosis genes; hMSC, 6 hrs, Proapoptotic gene): 1.59 ± 0.39 | Ratio of sclerostin to vehicle, Myd88 (apoptosis genes; hMSC, 6 hrs, Proapoptotic gene): 1.4 ± 0.31 | Ratio of sclerostin to vehicle, Casper (apoptosis genes; [4]): 2.68 ± 0.28 | Ratio of sclerostin to vehicle, I-TRAF (apoptosis genes; [4]): 2.05 ± 0.54 | Ratio of sclerostin to vehicle, Mdm2 (apoptosis genes; [4]): 1.66 ± 0.34 | Ratio of sclerostin to vehicle, Bak1 (apoptosis genes; [5]): 2.36 ± 0.74 | Ratio of sclerostin to vehicle, Bax (apoptosis genes; [5]): 1.64 ± 0.3 | Ratio of sclerostin to vehicle, Bcl10 (apoptosis genes; [5]): 1.84 ± 0.76 | Ratio of sclerostin to vehicle, Blk (apoptosis genes; [5]): 1.83 ± 0.12 | Ratio of sclerostin to vehicle, Myd88 (apoptosis genes; [5]): 2.64 ± 1.3
